Measured values published in the supplement of paper PMC10567573.

B1: SLC6A17 (parent)
chain: HMFTPKLDKMLDPQVWREAATQVF

Variants of: B1
Experiment: protein stability index of a GFP-peptide fusion (GPS, HEK-293T) (PSI 1-6); higher = more stable
Conditions: c terminus: a fixed tail appended
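Also: lentivirally expressed fusions sorted by FACS into six bins by GFP to DsRed ratio, PSI derived from sequencing read proportions per bin multiplied by bin number.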

Row | Variant | protein stability index
1 | Q22G | 1.93
2 | Q22H | 1.64
3 | Q22C | 1.81
4 | Q22I | 1.45
5 | Q22E | 1.9
6 | Q22W | 2.1
7 | Q22P | 1.67
8 | Q22D | 2.43
9 | Q22S | 1.9
10 | Q22Y | 1.85
11 | Q22A | 1.36
12 | Q22M | 3.21
13 | Q22R | 1.77
14 | Q22T | 1.82
15 | Q22L | 1.68
16 | Q22K | 2.52
17 | Q22N | 2.5
18 | V23C | 2.99
19 | V23W | 1.75
20 | V23F | 2.16
21 | V23L | 1.58
22 | V23N | 2.07
23 | V23T | 2.02
24 | V23S | 2.05

Row | Variant | protein stability index
25 | V23E | 2.9
26 | V23Y | 2.17
27 | V23I | 1.89
28 | V23A | 2.02
29 | V23P | 2.2
30 | V23D | 3.65
31 | V23M | 1.55
32 | V23K | 2.48
33 | V23H | 2.02
34 | V23R | 3.06
35 | V23Q | 1.74
36 | V23G | 2.2
37 | F24L | 2.7
38 | F24K | 3.81
39 | F24H | 2.18
40 | F24I | 1.54
41 | F24P | 3.17
42 | F24D | 3.56
43 | F24A | 2.29
44 | F24N | 2.67
45 | F24M | 2.96
46 | F24C | 1.97
47 | A20F | 1.43
48 | A20D | 2.24

Row | Variant | protein stability index
49 | A20G | 1.82
50 | A20K | 2.38
51 | A20N | 1.94
52 | A20T | 2.19
53 | A20P | 1.48
54 | A20H | 1.26
55 | A20V | 1.22
56 | A20L | 2.6
57 | A20R | 1.87
58 | A20E | 2.41
59 | A20S | 2.03
60 | A20Q | 1.7
61 | A20C | 1.82
62 | A20I | 2.21
63 | D12G | 1.3
64 | D12W | 2.8
65 | D12H | 1.66
66 | D12P | 1.91
67 | D12K | 1.63
68 | D12Y | 1.34
69 | D12N | 1.34
70 | D12T | 2.45
71 | D12V | 1.32
72 | D12C | 2.67

Row | Variant | protein stability index
73 | D12I | 1.79
74 | D12A | 1.98
75 | D12F | 1.63
76 | D12E | 1.39
77 | D12Q | 2.2
78 | D12S | 1.98
79 | D12M | 1.42
80 | D12R | 1.81
81 | D8E | 1.5
82 | D8I | 1.65
83 | D8K | 2.79
84 | D8F | 2.81
85 | D8H | 1.84
86 | D8R | 3.33
87 | D8A | 1.82
88 | D8Y | 2
89 | D8Q | 1.87
90 | D8G | 2.06
91 | D8V | 1.34
92 | D8C | 1.67
93 | D8T | 2.27
94 | D8P | 3.01
95 | D8W | 1.86
96 | D8S | 2.3

Row | Variant | protein stability index
97 | D8M | 1.81
98 | D8L | 1.76
99 | D8N | 2.33
100 | W16G | 3.27
101 | W16Y | 2.62
102 | W16D | 3.83
103 | W16L | 2.34
104 | W16T | 3.05
105 | W16E | 3.76
106 | W16N | 3.2
107 | W16M | 2.14
108 | W16Q | 3.06
109 | W16H | 3.88
110 | W16K | 2.94
111 | W16P | 3.78
112 | W16S | 2.87
113 | W16V | 2.59
114 | W16R | 3.72
115 | W16C | 2.75
116 | W16I | 2.33
117 | W16F | 2.47
118 | W16A | 2.47
119 | K6L | 2.1
120 | K6G | 1.8

Row | Variant | protein stability index
121 | K6H | 1.83
122 | K6V | 1.24
123 | K6I | 1.7
124 | K6W | 2.1
125 | K6F | 1.65
126 | K6N | 2.11
127 | K6Q | 1.51
128 | K6M | 1.62
129 | K6S | 1.89
130 | K6P | 2.01
131 | K6T | 1.74
132 | K6R | 1.76
133 | K6Y | 2.85
134 | Q14R | 1.94
135 | Q14I | 1.12
136 | Q14E | 2.41
137 | Q14Y | 2.03
138 | Q14P | 1.63
139 | Q14N | 2.23
140 | Q14A | 1.73
141 | Q14L | 2.14
142 | Q14S | 1.59
143 | Q14F | 2.13
144 | Q14T | 2.23

Row | Variant | protein stability index
145 | Q14V | 2.51
146 | Q14M | 2.06
147 | Q14G | 1.56
148 | Q14K | 2.26
149 | Q14H | 1.74
150 | Q14W | 1.69
151 | L11W | 1.63
152 | L11R | 3.13
153 | L11Q | 2.35
154 | L11Y | 2.43
155 | L11T | 2.18
156 | L11S | 2.18
157 | L11K | 2.24
158 | L11M | 2.05
159 | L11D | 1.87
160 | L11N | 2.29
161 | L11V | 1.87
162 | L11A | 1.55
163 | L11F | 2.33
164 | L11C | 2.17
165 | L11H | 2.23
166 | L11P | 2.16
167 | L11G | 2.9
168 | L11I | 2.39

Row | Variant | protein stability index
169 | E18G | 1.02
170 | E18Q | 2.22
171 | E18P | 1.86
172 | E18K | 1.08
173 | E18A | 2.04
174 | E18M | 1.52
175 | E18I | 1.97
176 | E18Y | 1.75
177 | E18R | 3.18
178 | E18C | 1.29
179 | E18T | 1.79
180 | E18D | 1.87
181 | E18S | 1.99
182 | E18F | 1.85
183 | E18N | 2.3
184 | E18L | 1.38
185 | E18H | 1.91
186 | E18V | 2.37
187 | T21P | 2.46
188 | T21E | 2.42
189 | T21Y | 1.54
190 | T21V | 1.71
191 | T21M | 1.54
192 | T21R | 1.84

Row | Variant | protein stability index
193 | T21N | 2.21
194 | T21W | 2.48
195 | T21I | 1.48
196 | T21A | 1.91
197 | T21Q | 1.28
198 | T21K | 3.06
199 | T21L | 1.88
200 | T21C | 1.06
201 | T21H | 1.76
202 | T21D | 2.36
203 | T21S | 1.94
204 | T21G | 2.13
205 | T21F | 3.23
206 | V15I | 1.35
207 | V15P | 2.81
208 | V15Y | 2.12
209 | V15T | 2.66
210 | V15C | 2.12
211 | V15G | 1.96
212 | V15F | 2.22
213 | V15H | 2.34
214 | V15S | 2.15
215 | V15W | 2.24
216 | V15E | 2.84

Row | Variant | protein stability index
217 | V15N | 1.9
218 | V15D | 2.96
219 | V15A | 2.38
220 | V15K | 2.39
221 | V15M | 1.63
222 | V15R | 3.24
223 | V15Q | 1.89
224 | V15L | 2.37
225 | L7T | 2.27
226 | L7M | 2.38
227 | L7S | 2.02
228 | L7F | 1.8
229 | L7H | 1.79
230 | L7E | 2.86
231 | L7N | 1.99
232 | L7C | 1.86
233 | L7K | 2.73
234 | L7V | 1.79
235 | L7Y | 1.46
236 | L7G | 2.24
237 | L7W | 1.62
238 | L7R | 1.89
239 | L7I | 1.4
240 | L7D | 2.55

Row | Variant | protein stability index
241 | L7A | 1.94
242 | L7Q | 2.55
243 | L7P | 2.1
244 | R17D | 2.46
245 | R17N | 2.26
246 | R17H | 1.74
247 | R17V | 2.18
248 | R17C | 1.39
249 | R17S | 2.8
250 | R17I | 2.08
251 | R17G | 2
252 | R17L | 3.05
253 | R17E | 2.3
254 | R17F | 1.27
255 | R17Q | 1.84
256 | R17K | 1.11
257 | R17Y | 1.18
258 | R17P | 1.89
259 | R17A | 1.36
260 | R17M | 2.42
261 | R17T | 1.82
262 | R17W | 1.6
263 | K9L | 1.83
264 | K9Q | 1.92

Row | Variant | protein stability index
265 | K9I | 1.66
266 | K9E | 1.58
267 | K9H | 2.94
268 | K9P | 3.02
269 | K9S | 1.53
270 | K9W | 2.95
271 | K9N | 2.04
272 | K9A | 1.21
273 | K9R | 2.42
274 | K9F | 1.52
275 | K9T | 2.1
276 | K9Y | 1.33
277 | K9G | 1.25
278 | K9V | 1.5
279 | K9D | 2.63
280 | K9M | 2.03
281 | A19E | 1.96
282 | A19G | 1.63
283 | A19N | 2.35
284 | A19S | 1.52
285 | A19L | 1.48
286 | A19H | 2.14
287 | A19F | 2.03
288 | A19V | 2.15

Row | Variant | protein stability index
289 | A19K | 1.79
290 | A19I | 1.91
291 | A19T | 2.56
292 | A19W | 1.35
293 | A19R | 2.03
294 | A19M | 1.5
295 | A19P | 2.24
296 | A19Q | 2.35
297 | A19Y | 2.12
298 | A19D | 2.21
299 | A19C | 3.43
300 | M10P | 2.4
301 | M10T | 1.66
302 | M10K | 1.78
303 | M10Q | 2.78
304 | M10N | 1.99
305 | M10H | 1.42
306 | M10C | 2.31
307 | M10G | 2.15
308 | M10E | 2.57
309 | M10W | 2.05
310 | M10Y | 2.23
311 | M10S | 2.17
312 | M10V | 1.85

Row | Variant | protein stability index
313 | M10F | 2.59
314 | M10I | 1.74
315 | M10D | 2.63
316 | M10L | 3.08
317 | M10R | 1.78
318 | P13M | 2.33
319 | P13L | 1.86
320 | P13K | 2.34
321 | P13E | 2.4
322 | P13D | 1.79
323 | P13S | 1.93
324 | P13C | 1.82
325 | P13H | 1.54
326 | P13A | 2
327 | P13T | 1.76
328 | P13Q | 2.19
329 | P13W | 1
330 | P13I | 1.29
331 | P13V | 2.11
332 | P13N | 2.4
333 | P13F | 1.67
334 | P13Y | 1.69
